US20210130452A1 (Merck KGaA, published 2021)
Values joined by “and” are separate entries in the source; they are usually repeats but may differ in a detail not shown here. Equal values may be shown once. Read-outs that look alike come from different tables or passages of the source.

Assays:
Cynomolgus monkey IL-17F [1] = molecular target: T1, Cynomolgus monkey IL-17F (Cynomolgus monkey, UniProt G7P4V0 31-163); assay: cell-based or functional assay
T1 sequence: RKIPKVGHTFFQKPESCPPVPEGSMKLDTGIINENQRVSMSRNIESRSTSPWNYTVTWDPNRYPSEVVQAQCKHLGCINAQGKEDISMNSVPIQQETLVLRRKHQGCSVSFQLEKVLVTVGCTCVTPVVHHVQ

human IL-17F [2] = molecular target: T2, human IL-17F (human, UniProt Q96PD4 31-163); assay: cell-based or functional assay
T2 sequence: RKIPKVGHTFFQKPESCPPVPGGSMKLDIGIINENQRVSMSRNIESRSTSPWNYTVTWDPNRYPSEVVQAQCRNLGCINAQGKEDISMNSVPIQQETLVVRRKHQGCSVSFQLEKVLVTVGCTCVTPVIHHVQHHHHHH

human IL-17A [3] = molecular target: T3, human IL-17A (human, UniProt Q16552 24-155); assay: cell-based or functional assay
T3 sequence (Q16552 other isoform, or with tags, fused parts or gaps): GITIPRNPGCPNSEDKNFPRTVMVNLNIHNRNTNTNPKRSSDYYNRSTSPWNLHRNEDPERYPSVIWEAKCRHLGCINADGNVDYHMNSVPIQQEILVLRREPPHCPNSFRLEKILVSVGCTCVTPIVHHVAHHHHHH

[4] = molecular target: T4, human IL-17A/F heterodimer (human, UniProt Q16552 24-155; Q96PD4 31-163, limits assumed); assay: cell-based or functional assay
Target sequence in this assay (Q16552 24-155 limits assumed, one chain of several): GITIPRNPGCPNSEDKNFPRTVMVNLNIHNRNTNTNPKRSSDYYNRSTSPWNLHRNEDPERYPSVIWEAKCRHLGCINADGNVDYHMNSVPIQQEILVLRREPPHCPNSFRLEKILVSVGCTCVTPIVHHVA

human IL-17F [5] = molecular target: T2, human IL-17F; assay: AlphaScreen hIL-17F-IL-17RC; reference itself
human IL-17A [6] = molecular target: T3, human IL-17A; assay: AlphaScreen hIL-17A-IL-17RA; reference itself
Cynomolgus monkey IL-17A [7] = molecular target: T5, Cynomolgus monkey IL-17A (Cynomolgus monkey, UniProt A0A2K5TTB0 24-155); assay: SPR (Biacore) off-rate
T5 construct: also called cyno IL-17A; cIL-17A
T5 sequence (A0A2K5TTB0 entry or part of it): as the sequence (Q16552 24-155 limits assumed, one chain of several) above, with T3A, P8S, N34S, I77V, N78K, P104R counted along it

Cynomolgus monkey IL-17F [8] = molecular target: T1, Cynomolgus monkey IL-17F; assay: SPR (Biacore) off-rate
human IL-17F [9] = molecular target: T2, human IL-17F; assay: SPR (Biacore) off-rate
human IL-17A [10] = molecular target: T3, human IL-17A; assay: SPR (Biacore) off-rate
[11] = molecular target: T4, human IL-17A/F heterodimer; assay: SPR (Biacore) off-rate
Target sequence in this assay (Q16552 24-155 limits assumed, one chain of several): as the sequence (Q16552 24-155 limits assumed, one chain of several) above

human IL-17F [12] = molecular target: T2, human IL-17F; assay: SPR (Biacore) off-rate; remark: listed apart in the source
human IL-17A [13] = molecular target: T3, human IL-17A; assay: SPR (Biacore) off-rate; remark: listed apart in the source
[14] = molecular target: T4, human IL-17A/F heterodimer; assay: SPR (Biacore) off-rate; remark: listed apart in the source
Target sequence in this assay (Q16552 24-155 limits assumed, one chain of several): as above

human IL-17F [15] = molecular target: T2, human IL-17F; assay: AlphaScreen hIL-17F-IL-17RC; reference itself; remark: listed apart in the source
human IL-17A [16] = molecular target: T3, human IL-17A; assay: AlphaScreen hIL-17A-IL-17RA; reference itself; remark: listed apart in the source
Cynomolgus monkey IL-17A [17] = molecular target: Cynomolgus monkey IL-17A (Cynomolgus monkey, UniProt A0A2K5TTB0 24-155); assay: cell-based or functional assay
Target sequence in this assay (A0A2K5TTB0 entry or part of it): as the sequence (Q16552 24-155 limits assumed, one chain of several) above, with T3A, P8S, N34S, I77V, N78K, P104R counted along it

human IL-17F [18] = molecular target: T6, human IL-17F (human, UniProt Q96PD4 31-163); assay: KinExA, 600 pM Nanobody
T6 construct: GenBank AF384857, expressed in Hek293 as 6-His C-terminal tagged protein; also called hIL-17F; IL-17F-6HIS
T6 sequence: T2 sequence

human IL-17F [19] = molecular target: T6, human IL-17F; assay: cell-based or functional assay; remark: listed apart in the source
human IL-17A [20] = molecular target: T7, human IL-17A (human, UniProt Q16552 24-155); assay: cell-based or functional assay; remark: listed apart in the source
T7 sequence (Q16552 other isoform, or with tags, fused parts or gaps): as the sequence (Q16552 other isoform, or with tags, fused parts or gaps) above

human IL-17F [21] = molecular target: T6, human IL-17F; assay: cell-based or functional assay; remark: listed apart in the source
human IL-17A [22] = molecular target: T7, human IL-17A; assay: cell-based or functional assay; remark: listed apart in the source
human IL-17F [23] = molecular target: T2, human IL-17F; assay: SPR (Biacore) off-rate; remark: listed apart in the source
[24] = molecular target: T4, human IL-17A/F heterodimer; assay: SPR (Biacore) off-rate; remark: listed apart in the source
Target sequence in this assay (Q16552 24-155 limits assumed, chain 1 of 2, one chain of several): as the sequence (Q16552 24-155 limits assumed, one chain of several) above

human IL-17F [25] = molecular target: T2, human IL-17F; assay: AlphaScreen IL-17F-IL-17RC; reference itself
Cynomolgus monkey IL-17F [26] = molecular target: T1, Cynomolgus monkey IL-17F; assay: cell-based or functional assay; remark: listed apart in the source
human IL-17F [27] = molecular target: T2, human IL-17F; assay: cell-based or functional assay; remark: listed apart in the source
[28] = molecular target: T4, human IL-17A/F heterodimer; assay: cell-based or functional assay; remark: listed apart in the source
Target sequence in this assay (Q16552 24-155 limits assumed, one chain of several): as above

human IL-17F [29] = molecular target: T2, human IL-17F; assay: AlphaScreen IL-17F-IL-17RC; reference itself; remark: listed apart in the source
Cynomolgus monkey IL-17F [30] = molecular target: T1, Cynomolgus monkey IL-17F; assay: SPR (Biacore) off-rate; remark: listed apart in the source
human IL-17F [31] = molecular target: T2, human IL-17F; assay: SPR (Biacore) off-rate; remark: listed apart in the source
[32] = molecular target: T4, human IL-17A/F heterodimer; assay: SPR (Biacore) off-rate; remark: listed apart in the source
Target sequence in this assay (Q16552 24-155 limits assumed, one chain of several): as above

human IL-17F [33] = molecular target: T2, human IL-17F; assay: AlphaScreen hIL-17F-IL-17RC; reference itself; remark: listed apart in the source
Cynomolgus monkey IL-17F [34] = molecular target: T1, Cynomolgus monkey IL-17F; assay: cell-based or functional assay; remark: listed apart in the source
human IL-17F [35] = molecular target: T2, human IL-17F; assay: cell-based or functional assay; remark: listed apart in the source
human IL-17A [36] = molecular target: T3, human IL-17A; assay: cell-based or functional assay; remark: listed apart in the source
[37] = molecular target: T4, human IL-17A/F heterodimer; assay: cell-based or functional assay; remark: listed apart in the source
Target sequence in this assay (Q16552 24-155 limits assumed, one chain of several): as above

human IL-17F [38] = molecular target: T2, human IL-17F; assay: AlphaScreen hIL-17F-IL-17RC; reference itself; remark: listed apart in the source
human IL-17A [39] = molecular target: T3, human IL-17A; assay: AlphaScreen hIL-17A-IL-17RA; reference itself; remark: listed apart in the source
Cynomolgus monkey IL-17A [40] = molecular target: T5, Cynomolgus monkey IL-17A; assay: SPR (Biacore) off-rate; remark: listed apart in the source
Cynomolgus monkey IL-17F [41] = molecular target: T1, Cynomolgus monkey IL-17F; assay: SPR (Biacore) off-rate; remark: listed apart in the source
human IL-17F [42] = molecular target: T2, human IL-17F; assay: SPR (Biacore) off-rate; remark: listed apart in the source
human IL-17A [43] = molecular target: T3, human IL-17A; assay: SPR (Biacore) off-rate; remark: listed apart in the source
[44] = molecular target: T4, human IL-17A/F heterodimer; assay: SPR (Biacore) off-rate; remark: listed apart in the source
human IL-17F [45] = molecular target: T2, human IL-17F; assay: SPR (Biacore) off-rate; remark: listed apart in the source
human IL-17A [46] = molecular target: T3, human IL-17A; assay: SPR (Biacore) off-rate; remark: listed apart in the source
[47] = molecular target: T4, human IL-17A/F heterodimer; assay: SPR (Biacore) off-rate; remark: listed apart in the source
Target sequence in this assay (Q16552 24-155 limits assumed, chain 1 of 2, one chain of several): as the sequence (Q16552 24-155 limits assumed, one chain of several) above

human IL-17A [48] = molecular target: T3, human IL-17A; assay: AlphaScreen hIL-17A-IL-17RA; reference itself; remark: listed apart in the source
human IL-17A [49] = molecular target: T3, human IL-17A; assay: AlphaScreen hIL-17A-IL-17RA; vs IL17MS13E02
human IL-17F [50] = molecular target: T2, human IL-17F; assay: AlphaScreen hIL-17F-IL-17RC; vs IL17MS13E02

B1: IL17MS13B03 (VHH)
VHH: EVQLVESGGGSVQAGDSLRLSCAASGRANSINWFGWFRQTPGKEREFVAGIRWSDAYTEYANSVKGRFTISRDNAKNTVDLQMDSLKPEDTAVYYCVLDLSTVRYWGQGTQVTVSS
notes: Class 4 Nanobody, wild type; also called WT
Cynomolgus monkey IL-17F [1]
  IC50 cell based assay cyno IL17F: 29 nM
Human IL-17F [2]
  IC50 cell based assay hIL17F: 35 nM
Human IL-17A [3]
  IC50 cell based assay hIL17A: 1.34 nM
[4]
  IC50 cell based assay hIL17A/F: 4.32 nM
Human IL-17F [5]
  IC50 fold difference compared to WT: 1 fold
Human IL-17A [6]
  IC50 fold difference compared to WT: 1 fold
Cynomolgus monkey IL-17A [7]
  koff: 0.000114 s⁻¹
Cynomolgus monkey IL-17F [8]
  koff: 0.00469 s⁻¹
Human IL-17F [9]
  koff: 0.00792 s⁻¹
Human IL-17A [10]
  koff: 0.000131 s⁻¹ and 0.000208 s⁻¹
[11]
  koff: 6.21e-05 to 0.000125 s⁻¹
Human IL-17F [12]
  koff: 0.00792 s⁻¹
Human IL-17A [13]
  koff: 0.000131 s⁻¹ and 0.000208 s⁻¹
[14]
  koff: 6.21e-05 to 0.000125 s⁻¹
Human IL-17F [15]
  IC50 fold difference compared to WT: 1 fold
Human IL-17A [16]
  IC50 fold difference compared to WT: 1 fold

B2: 13E02-LH-Fc (Fc fusion, not shown: a dimerising Fc or GST)
chain: EVQLVESGGGLVQAGGSLRLSCAASGRTYDAMGWLRQAPGKEREFVAAISGSGDDTYYADSVKGRFTISKDNAGITMYLQMNSLKPEDTAVYYCATRRGLYYVWDSNDYENWGQGTQVTVSSEPKTPKPQPQPQPQPNPTTESKCPKCP
notes: bivalent Fc fusion from Hek-293-6E cells; also called MSB0010606
Cynomolgus monkey IL-17A [17]
  IC50, Cyno IL17A, HT-1080 bioassay: 0.19 nM
Human IL-17F [18]
  Kd: 2.04 nM
Human IL-17F [19]
  IC50, hIL-17F induced IL-6, HT-1080, 100 µM HSA: 15.3 nM
Human IL-17A [20]
  Emax, hIL-17A induced IL-6, HT-1080, 100 µM HSA: 98.5%
  IC50, hIL-17A induced IL-6, HT-1080, 100 µM HSA: 0.85 nM
Human IL-17F [21]
  IC50, hIL-17F induced IL-6, HT-1080, without HSA: 2.7 nM
Human IL-17A [22]
  IC50, hIL-17A induced IL-6, HT-1080, without HSA: 0.19 nM

B3: IL17MS16A04 (VHH)
VHH: EVQLVESGGGLVQAGGSLRLSCAASGRTFSSYVVGWFRQAPGKEREFIGAISGSGDSIYYAVSEKDRFTISRDNGKNTLYLQMSSLKAEDTAVYYCTADQEFGYLRFGRSEYWGQGTQVTVSS
notes: Class 3 Nanobody, wild type; also called WT
Human IL-17F [23]
  koff: 0.000405 s⁻¹
[24]
  koff: 0.0024 s⁻¹
Human IL-17F [25]
  IC50 fold difference vs WT: 1 fold
Cynomolgus monkey IL-17F [26]
  IC50 cell based assay cyno IL-17F: 7.3 nM
Human IL-17F [27]
  IC50 cell based assay hIL-17F: 28 nM
[28]
  IC50 cell based assay hIL-17A/F: 8 nM
Human IL-17F [29]
  IC50 fold difference vs WT: 1 fold
Cynomolgus monkey IL-17F [30]
  koff: 0.000636 s⁻¹
Human IL-17F [31]
  koff: 0.000382 s⁻¹ and 0.00041 s⁻¹
[32]
  koff: 0.00239 s⁻¹ and 0.0025 s⁻¹

B4: IL17MS13E02 (VHH)
VHH: EVQLVESGGGLVQAGGSLRLSCAASGRTYDAMGWLRQAPGKEREFVAAISGSGDDTYYADSVKGRFTISKDNAGITMYLQMNSLKPEDTAVYYCATRRGLYYVWDSNDYENWGQGTQVTVSS
notes: as for B1
Human IL-17F [33]
  IC50 fold difference vs WT: 1 fold
Cynomolgus monkey IL-17F [34]
  IC50 cell based assay cyno IL-17F: 35 nM
Human IL-17F [35]
  IC50 cell based assay hIL-17F: 44 nM
Human IL-17A [36]
  IC50 cell based assay hIL-17A: 1.73 nM
[37]
  IC50 cell based assay hIL-17A/F: 1.99 nM
Human IL-17F [38]
  IC50 fold difference vs WT: 1 fold
Human IL-17A [39]
  IC50 fold difference vs WT: 1 fold
Cynomolgus monkey IL-17A [40]
  koff: 0.000103 s⁻¹
Cynomolgus monkey IL-17F [41]
  koff: 0.046 s⁻¹
Human IL-17F [42]
  koff: 0.00223 s⁻¹
Human IL-17A [43]
  koff: 0.000114 s⁻¹
[44]
  koff: 3.97e-05 s⁻¹
Human IL-17F [45]
  koff: 0.00223 s⁻¹
Human IL-17A [46]
  koff: 0.000114 s⁻¹
[47]
  koff: 3.97e-05 s⁻¹
Human IL-17A [48]
  IC50 fold difference vs WT: 1 fold

B5: IL17MS3072 (VHH)
VHH: DVQLVESGGGLVQPGGSLRLSCAASGRTYDALGWLRQAPGKEREFVAAISGSGDDTYYADSVKGRFTISRDNSKNTLYLQMNSLRPEDTAVYYCATRRGLYYVWDANDYENWGQGTLVTVSS
notes: variant of IL17MS13E02; Kabat numbering
Human IL-17A [49]
  IC50 fold difference vs WT: 0.59 fold
Cynomolgus monkey IL-17F [34]
  IC50 cell based assay cyno IL-17F: 25.2 nM
Human IL-17F [35]
  IC50 cell based assay hIL-17F: 27 nM
Human IL-17A [36]
  IC50 cell based assay hIL-17A: 0.77 nM
[37]
  IC50 cell based assay hIL-17A/F: 3.5 nM
Human IL-17F [50]
  IC50 fold difference vs WT: 0.3 fold
